The target of assay [1] is glutathione transferase P1-1 C47S mutant (human). Put plainly: cross-linking.
The target is the same in assay [2]. The assay is described as follows: ESI-MS.
Assay [3] concerns the target glutathione transferase P1-1 C101S mutant (human). The assay is described as follows: cross-linking.
Assay [4] shares this target. The assay is described as follows: ESI-MS.

Turning to “glutathione transferase P1-1 C47S mutant (enzyme)”, in assay [1], the relative abundance of peak E (C47S dimer + 2×[Pt(NH3)]) came to 54% and the relative abundance of peak F (C47S dimer + 2×[PtCl2] + [Pt(NH3)2]) was 24%. This substance displayed a relative abundance of peak C (C47S dimer) in assay [2] of 5%.

For “glutathione transferase P1-1 C101S mutant (enzyme)”, the relative abundance of peak L (C101S dimer + 2×MeOH) in assay [3] came to 18%. This substance also returned a relative abundance of peak C (C101S dimer) in assay [4] of 5%.

(Values after paper PMC6628828.)
